Our source for the stoichiometry N values is PMC7086702.

The test has as its target Groundnut bud necrosis virus nucleocapsid (N) protein, full-length, hexa-histidine-tagged (Groundnut bud necrosis virus, strain GBNV-To(K)). Description: SEC.

Broadly, the stoichiometry N is the number of molecules, sites or subunits per partner or assembly. “Groundnut bud necrosis virus nucleocapsid (N) protein, full-length, hexa-histidine-tagged (natural protein)” yielded a stoichiometry N of 4.
